Each block holds one binder with its values, some of them ahead of it.
How the values were obtained:
[1] = target: T1, P2-AA-1HAA-D; test: two-hybrid library CCmax; settings: mean of both orientations;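 also: natural log of median RNA to DNA barcode read ratio; higher means stronger binding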
T1 chain: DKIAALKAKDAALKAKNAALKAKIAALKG

[2] = target: T2, P2-AA-1HAA-R; test: two-hybrid library CCmax; settings: mean of both orientations;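 also: natural log of median RNA to DNA barcode read ratio; higher means stronger binding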
T2 chain: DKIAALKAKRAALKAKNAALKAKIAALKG

[3] = target: T3, P2-AA-1HAA-S; test: two-hybrid library CCmax; settings: mean of both orientations;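 also: natural log of median RNA to DNA barcode read ratio; higher means stronger binding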
T3 chain: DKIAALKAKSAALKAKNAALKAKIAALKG

[4] = target: T4, P2-AA-1HAA-K; test: two-hybrid library CCmax; settings: mean of both orientations;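 also: natural log of median RNA to DNA barcode read ratio; higher means stronger binding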
T4 chain: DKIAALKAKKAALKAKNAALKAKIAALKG

[5] = target: T5, P2-AA; test: two-hybrid library CCmax; settings: mean of both orientations;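 also: natural log of median RNA to DNA barcode read ratio; higher means stronger binding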
T5 chain: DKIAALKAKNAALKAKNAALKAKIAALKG

[6] = target: T6, P2-AA-1HAA-V; test: two-hybrid library CCmax; settings: mean of both orientations;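 also: natural log of median RNA to DNA barcode read ratio; higher means stronger binding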
T6 chain: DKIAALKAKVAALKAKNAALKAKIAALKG

[7] = target: T7, P2-AA-1HAA-T; test: two-hybrid library CCmax; settings: mean of both orientations
T7 chain: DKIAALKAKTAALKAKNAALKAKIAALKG

[8] = target: T8, P2-AA-1HAA-E; test: two-hybrid library CCmax; settings: mean of both orientations
T8 chain: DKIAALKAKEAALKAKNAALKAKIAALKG

[9] = target: T9, P2-AA-1HAA-I; test: two-hybrid library CCmax; settings: mean of both orientations
T9 chain: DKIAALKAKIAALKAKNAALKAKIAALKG

[10] = target: T10, P2-AA-1HAA-Y; test: two-hybrid library CCmax; settings: mean of both orientations
T10 chain: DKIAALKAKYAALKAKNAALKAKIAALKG

[11] = target: T11, P6SHb; test: two-hybrid library CCNG1
T11 chain: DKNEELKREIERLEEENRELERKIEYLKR

[12] = target: T12, P8SHb; test: two-hybrid library CCNG1
T12 chain: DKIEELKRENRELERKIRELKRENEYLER

[13] = target: T13, P2SHb; test: two-hybrid library CCNG1
T13 chain: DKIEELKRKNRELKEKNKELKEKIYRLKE

[14] = target: T14, P9SHb; test: two-hybrid library CCNG1
T14 chain: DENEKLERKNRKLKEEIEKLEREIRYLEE

[15] = target: T15, P4SHb; test: two-hybrid library CCNG1
T15 chain: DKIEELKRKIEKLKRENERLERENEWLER

[16] = target: T16, P12SHb; test: two-hybrid library CCNG1
T16 chain: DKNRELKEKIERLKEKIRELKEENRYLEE

[17] = target: T17, P3SHb; test: two-hybrid library CCNG1
T17 chain: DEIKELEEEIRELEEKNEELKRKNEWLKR

[18] = target: T18, P1SHb; test: two-hybrid library CCNG1
T18 chain: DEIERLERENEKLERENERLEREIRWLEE

[19] = target: T19, P7SHb; test: two-hybrid library CCNG1
T19 chain: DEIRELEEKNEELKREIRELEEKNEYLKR

[20] = target: T20, P11SHb; test: two-hybrid library CCNG1
T20 chain: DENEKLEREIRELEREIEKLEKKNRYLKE

[21] = target: T21, P5A-bP; test: two-hybrid library CCNG1
T21 chain: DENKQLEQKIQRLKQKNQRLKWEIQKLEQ

[22] = target: T22, P3A-bP; test: two-hybrid library CCNG1
T22 chain: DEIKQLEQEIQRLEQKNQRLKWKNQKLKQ

[23] = target: T23, P12A-bP; test: two-hybrid library CCNG1
T23 chain: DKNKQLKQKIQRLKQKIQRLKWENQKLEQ

[24] = target: T24, P1A-bP; test: two-hybrid library CCNG1
T24 chain: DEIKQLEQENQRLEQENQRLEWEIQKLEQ

[25] = target: T25, P2A-bP; test: two-hybrid library CCNG1
T25 chain: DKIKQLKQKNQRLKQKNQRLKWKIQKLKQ

[26] = target: T26, P9A-bP; test: two-hybrid library CCNG1
T26 chain: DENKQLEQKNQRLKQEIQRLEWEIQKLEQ

[27] = target: T27, P8A-bP; test: two-hybrid library CCNG1
T27 chain: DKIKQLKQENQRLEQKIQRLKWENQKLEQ

[28] = target: T28, P4A-bP; test: two-hybrid library CCNG1
T28 chain: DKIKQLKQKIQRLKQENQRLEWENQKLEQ

[29] = target: T29, P6A-bP; test: two-hybrid library CCNG1
T29 chain: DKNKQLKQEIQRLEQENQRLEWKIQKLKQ

[30] = target: T30, P7A-bP; test: two-hybrid library CCNG1
T30 chain: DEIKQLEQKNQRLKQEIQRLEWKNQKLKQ

[31] = target: T31, P11A-bP; test: two-hybrid library CCNG1
T31 chain: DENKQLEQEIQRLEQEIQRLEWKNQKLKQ

[32] = target: T32, 4H3438-AA; test: two-hybrid library CCmax; settings: mean of both orientations
T32 chain: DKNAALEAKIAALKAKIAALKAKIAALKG

[33] = target: T33, 4H1821-AA; test: two-hybrid library CCmax; settings: mean of both orientations
T33 chain: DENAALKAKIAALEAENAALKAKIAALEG

[34] = target: T34, 4H452-AA; test: two-hybrid library CCmax; settings: mean of both orientations
T34 chain: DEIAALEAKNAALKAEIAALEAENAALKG

[35] = target: T35, 4H2253-AA; test: two-hybrid library CCmax; settings: mean of both orientations
T35 chain: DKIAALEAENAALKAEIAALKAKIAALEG

[36] = target: T36, 4H2931-AA; test: two-hybrid library CCmax; settings: mean of both orientations
T36 chain: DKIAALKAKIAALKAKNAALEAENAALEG

[37] = target: T37, 4H2343-AA; test: two-hybrid library CCmax; settings: mean of both orientations
T37 chain: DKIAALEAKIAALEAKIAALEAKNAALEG

[38] = target: T38, 4H_APH; test: two-hybrid library CCmax
T38 chain: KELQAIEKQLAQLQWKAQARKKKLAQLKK

[39] = target: T39, 4H3073-AA; test: two-hybrid library CCmax; settings: mean of both orientations
T39 chain: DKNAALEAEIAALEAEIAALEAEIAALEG

[40] = target: T40, 4H2774-AA; test: two-hybrid library CCmax; settings: mean of both orientations
T40 chain: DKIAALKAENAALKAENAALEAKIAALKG

[41] = target: T41, 4H_BCR; test: two-hybrid library CCmax; settings: mean of both orientations
T41 chain: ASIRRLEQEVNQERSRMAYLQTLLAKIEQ

[42] = target: T42, 4H3015-AA; test: two-hybrid library CCmax; settings: mean of both orientations
T42 chain: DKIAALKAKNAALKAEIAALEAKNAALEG

[43] = target: T43, 4H2732-AA; test: two-hybrid library CCmax; settings: mean of both orientations
T43 chain: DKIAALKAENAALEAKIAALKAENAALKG

[44] = target: T44, 4H2124-AA; test: two-hybrid library CCmax
T44 chain: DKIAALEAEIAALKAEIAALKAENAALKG

[45] = target: T45, 4H56-AA; test: two-hybrid library CCmax; settings: mean of both orientations
T45 chain: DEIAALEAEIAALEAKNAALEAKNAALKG

[46] = target: T46, 4H2165-AA; test: two-hybrid library CCmax; settings: mean of both orientations
T46 chain: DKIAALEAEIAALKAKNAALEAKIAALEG

[47] = target: T47, 4H1828-AA; test: two-hybrid library CCmax; settings: mean of both orientations
T47 chain: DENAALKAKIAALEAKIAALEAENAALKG

[48] = target: T48, 4H1930-AA; test: two-hybrid library CCmax; settings: mean of both orientations
T48 chain: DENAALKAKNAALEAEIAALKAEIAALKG

[49] = target: T49, 4H1765-AA; test: two-hybrid library CCmax
T49 chain: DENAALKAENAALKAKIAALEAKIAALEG

[50] = target: T50, 4H2592-AA; test: two-hybrid library CCmax; settings: mean of both orientations
T50 chain: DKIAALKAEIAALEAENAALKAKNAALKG

[51] = target: T51, 4H2330-AA; test: two-hybrid library CCmax; settings: mean of both orientations
T51 chain: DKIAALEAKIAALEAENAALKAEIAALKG

[52] = target: T52, 4H406-AA; test: two-hybrid library CCmax; settings: mean of both orientations
T52 chain: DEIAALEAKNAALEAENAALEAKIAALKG

[53] = target: 4H_GCN4; test: two-hybrid library CCmax
[54] = target: T53, 4H3001-AA; test: two-hybrid library CCmax; settings: mean of both orientations
T53 chain: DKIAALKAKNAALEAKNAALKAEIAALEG

[55] = target: T54, 4H249-AA; test: two-hybrid library CCmax; settings: mean of both orientations
T54 chain: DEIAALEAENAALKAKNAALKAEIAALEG

[56] = target: GCN2_T; test: two-hybrid library CCmax; settings: mean of both orientations
[57] = target: T55, 4H347-AA; test: two-hybrid library CCmax; settings: mean of both orientations
T55 chain: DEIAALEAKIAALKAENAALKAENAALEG

[58] = target: T56, 4H2466-AA; test: two-hybrid library CCmax; settings: mean of both orientations
T56 chain: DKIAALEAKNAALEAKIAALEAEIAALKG

[59] = target: T57, Core_NNNN-es_KEEE; test: two-hybrid library CCmax
T57 chain: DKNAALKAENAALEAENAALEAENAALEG

4H_GCN4, sequence (chain, as listed by the source): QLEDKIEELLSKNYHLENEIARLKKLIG

Binder: DEIAALEAERAALEAENAALEAEIAALEG [P1-AA-1HAA-R]
interaction score [1]: 0.454 | interaction score [2]: 1.34 | interaction score [3]: 1.28 | interaction score [4]: 0.734 | interaction score [5]: 1.76 | interaction score [6]: 2.29 | interaction score [7]: 1.95 | interaction score [8]: 0.63 | interaction score [9]: 1.99 | interaction score [10]: 1.63

Binder: DENAALKAENAALKAKIAALEAKIAALEG [4H1765-AA]
interaction score [32]: -0.901 | interaction score [33]: -1.42 | interaction score [34]: -1.48 | interaction score [35]: -1.14 | interaction score [36]: -1.83 | interaction score [37]: -1.45 | interaction score [38]: -2.38 | interaction score [39]: -1.02 | interaction score [40]: -1.4 | interaction score [41]: -1.93 | interaction score [42]: -1.7 | interaction score [43]: -1.76 | interaction score [44]: -1.72 | interaction score [45]: -1.76 | interaction score [46]: -1.25 | interaction score [47]: -0.973 | interaction score [48]: -1.21 | interaction score [49]: 2.4 | interaction score [50]: -1.67 | interaction score [51]: -1.37 | interaction score [52]: -1.54 | interaction score [53]: -1.69 | interaction score [54]: -2.1 | interaction score [55]: -1.63 | interaction score [56]: -1.28 | interaction score [57]: -1.81 | interaction score [58]: -1.7 | interaction score [59]: -0.679

The next lines start with the values.

interaction score [11]: 1.17 | interaction score [12]: -0.421 | interaction score [13]: 0.79 | interaction score [14]: 0.702 | interaction score [15]: 0.998 | interaction score [16]: 1.61 | interaction score [17]: -0.138 | interaction score [18]: -0.267 | interaction score [19]: 0.246 | interaction score [20]: 0.241
Binder: DENEKLEREIRELEREIEKLEKKNRYLKE [P11SHb]

interaction score [21]: -0.091 | interaction score [22]: -2.11 | interaction score [23]: 1.42 | interaction score [24]: -0.431 | interaction score [25]: -0.486 | interaction score [26]: 0.853 | interaction score [27]: 0.201 | interaction score [28]: -0.08 | interaction score [29]: 0 | interaction score [30]: -2.06 | interaction score [31]: -0.677
Binder: DENKQLEQEIQRLEQEIQRLEWKNQKLKQ [P11A-bP]

From publication PMC10397247
